Paper PMC9634612, “Rapid and efficient room-temperature serial synchrotron crystallography using the CFEL TapeDrive” (IUCrJ, 2022)

Target: the molecule itself
Assay: crystal structure; room-temperature (293 K) serial synchrotron crystallography with the CFEL TapeDrive, 2.3 Å, space group I222, one monomer in the asymmetric unit, tetramer generated by symmetry; UOX with 5PMUA bound

B1: Aspergillus flavus urate oxidase (enzyme)
chain: MSAVKAARYGKDNVRVYKVHKDEKTGVQTVYEMTVCVLLEGEIETSYTKADNSVIVATDSIKNTIYITAKQNPVTPPELFGSILGTHFIEKYNHIHAAHVNIVCHRWTRMDIDGKPHPHSFIRDSEEKRNVQVDVVEGKGIDIKSSLSGLTVLKSTNSQFWGFLRDEYTTLKETWDRILSTDVDATWQWKNFSGLQEVRSHVPKFDATWATAREVTLKTFAEDNSASVQATMYKMAEQILARQQLIETVEYSLPNKHYFEIDLSWHKGLQNTGKNAEVFAPQSDPNGLIKCTVGRSSLKSKL
notes: Urate oxidase of Aspergillus flavus, untagged, from a codon-optimized synthetic cDNA in pET24b; One monomer in the asymmetric unit; the tetramer is generated by crystal symmetry; also called UOX; cofactor-free A. flavus urate oxidase
stoichiometry N: 4
